In US20140329787A1, “PHYTOPHTHORA PHOSPHOLIPASE C” (Deakin University, priority 2011, published 2014):
“Also recorded” adds a separate entry of the source.

Experiments:
E. coli = assay: Growth curves of E. coli expressing Alt-PLC and truncations; format: cell-based; details: relative to E. coli not expressing Alt-PLC
Experimental: An analysis of function of the Alt-PLC truncations was performed using growth curves of Alt-PLC expressing E. coli cells (FIG. 28).
Therefore, growth curves of E. coli expressing Alt-PLC and the truncations allow determination of Alt-PLC function in vivo.

[1] = Hydrolysis of PIPx, neutral-lipid TLC; format: biochemical; details: 0.2 mg/ml enzyme
Experimental: Lipid samples of 0.5 μl were applied to silica 60 TLC plates and allowed to dry prior to the addition of more sample. Neutral lipids were applied to 10×20 cm pre-absorption zone-bearing silica-60 plates (Sigma-Aldrich, USA) and resolved in a solvent mixture of hexane:diethyl ether:acetic acid (9:1:0.5). Phospholipids were resolved on 20×20 cm silica-60 plates (Merck, Australia), without a pre-absorption zone, in a solvent mixture of chloroform:methanol:acetic acid:water (90:40:12:2). Lipids were detected by spraying the dried TLC plates with a solution of 0.05% rhodamine B (Sigma) in methanol and destaining was performed by repeated spraying with 5 M KOH. Lipid spots were then visualised following UV excitation at 312 nm.
Alt-PLC and Alt-PLC2 were refolded into buffer A4 at a concentration of 0.2 mg/ml and a hydrolysis reaction was performed using PIPx (mixed phosphatidylinositols, Sigma) as the substrate. The reaction was performed as described previously and the resultant neutral lipids were extracted by diethyl ether phase extraction. The samples were analysed by neutral-lipid thin-layer chromatography, on silica 60 plates with a pre-absorption zone; the mobile phase employed was hexane: diethyl ether: acetic acid (9:1:0.5).

| Molecule | growth of expressing E. coli (function in vivo) (E. coli) | monoacylglycerol production / phospholipase C activity level in vitro [1] |
| --- | --- | --- |
| t3: truncated Phytophthora sojae Alt-PLC1, SEQ ID NO: 19 (protein, Derived from Phytophthora sojae) YQFDSLALAGSRVSVSISTNDVGIQFTTDGNGRGAIVYNIRKQSQAALSAAIVPGLSLIAINHEPVIALEFAVKIDYSHRIEVDKSASYLGSQMPNSSWKMVDKDDHVSRSARPGSVDDLIRELVAGTEVDLVDVVSFVLFLDSFSSLNEVVDRLSAHVRNGVKSHGLIRLFIVVLLFRQSETKEADDLRDRFYSLISLNIDAKDKLVPLVEEYMSLYKEYFSLRGAGNYAVNYQAIPGMMSKVYGMESGFEPVSSGPFSAHLHRFVHPFIQRNHAATATVTMHHLLFTNPLTKAKGAIAANAFTHFVFQIHIIINQGIAATIAQRNRIRFTRFQFQATRITAFFAAIRQAHMQQFVHIFIMLQGIRHALTMQNFHRQFAHTTQTVRVHQAFFIKRRQFVQAHKALQIQANIRHARVRGFTHQTVHFTAAFIAQQLHFVHHFLCIQAQFQIKANHFRTFFRGVLHQHRVNHKRANMLKPTFNAGKFHAMLFLATGRNKITHRNFAKHRMGQQGALFRPTFRI | reduced growth of E. coli; also recorded: significantly higher lethality |  |
| t2: truncated Phytophthora sojae Alt-PLC1, SEQ ID NO: 18 (protein, Derived from Phytophthora sojae) YQFDSLALAGSRVSVSISTNDVGIQFTTDGNGRGAIVYNIRKQSQAALSAAIVPGLSLIAINHEPVIALEFAVKIDYSHRIEVDKSASYLGSQMPNSSWKMVDKDDHVSRSARPGSVDDLIRELVAGTEVDLVDVVSFVLFLDSFSSLNEVVDRLSAHVRNGVKSHGLIRLFIVVLLFRQSETKEADDLRDRFYSLISLNIDAKDKLVPLVEEYMSLYKEYFSLRGAGNYAVNYQAIPGMMSKVYGMESGFEPVSSGPFSAHLHRFVHPFIQRNHAATATVTMHHLLFTNPLTKAKGAIAANAFTHFVFQIHIIINQGIAATIAQRNRIRFTRFQFQATRITAFFAAIRQAHMQQFVHIFIMLQGIRHALTMQNFHRQFAHTTQTVRVHQAFFIKRRQFVQAHKALQIQANIRHARVRGFTHQTVHFTAAFIAQQLHFVHHFLCIQAQFQ | reduced growth of E. coli |  |
| Alt-PLC2: Phytophthora sojae Alt-PLC with the additional 35aa fragment in the RAS-GEF domain, SEQ ID NO: 14 (protein, listed as Phytophthora sojae) MASGWRQKPRLDPWDPPSPPPLLEEAAPKPKPKTSRFSRRSTRAKSHARQQAQHVELEREKAFRLVRHGSDPLLNDAFYATQVQVGNFVKMGWLTKQGHMWKSWKTRFFVLFSDGTFAYYKNKGRKKIKGCMQLNDGVVSVQHVDIRLADKAYVFQIEKGFYKLLCYCCSQFEAELWVAALRSVRRVAPPCYEMDLTATEEKAGSNAVTRHLNKIFITDKQIAKRLAEFKANTHDHSYAAIHNFIVELDDAIIDRHHLEFYQDAEIELLPGNELVRLIRRHVEDRVFIPLYAEAYASLETDKVKTRRSNLEQHLKVLKQKTQADFGISKDLSVCNWKQAISVVNMLDCVSLPTHKFEVILSAGKAIMELIAQYNGELFEVSDEMLTAIFRYVVTMSSLSDLPTLRALLKYGYQHHPASQNKANVVTAFLNAIKWVECFEAGDESYQFDSLALAGSRVSVSISTNDVGIQFTTDGNGRGAIVYNIRKQSQAALSAAIVPGLSLIAINHEPVIGMPFDKIIQRVRTAALPKQLTFMTEFYYYQLLSLDSEMYQYLMCIAARRGDLDSAAWMRSSTIELNTLCSWEKSRGKQVFGFTPVSGKGSPLHAAVHNGQLSMVNYLISRGADVNLCNQKGRRPLHVVKQSIDMAMIIQSLIDAGADIDAMEKHGLTPLMFMCSRASLEGSATLLALGADVHCVAWTNGFSALEFAVKSEHTELVELCLSKGANPNAPTLDGNTSLHLAATQANTDIILRLLQGGANPNVQNRYGQTPAALLLASSPGGSSDVRILCLEILTCAGCRLDKRDLFGRQASHLASISRDSHVVDLLRKLGSLNREANGVEIDIFGCSSVDYSHRIEVDKSASYLGSQMPNSSWKMVDKDDHVSRSARPGSVDDLIRELVAGTEVDLVDVVSFVLFLDSFSSLNEVVDRLSAHVRNGVKSHGLIRLFIVVLLFRQSETKEADDLRDRFYSLISLNIDAKDKLEYFSLRGAGNYAVNYQAIPGMMSKVYGMESGFEPVSSGPFSAHLHRFVDAERWAEQCTLLTHAVFCKIPVRDFIPTGSKKKHSVEFTSIKRWFQHISAFVINAVLVQNTPEERAEVISFYLKVADYCISLHNHDTLASILYALQSTAVQRLRKTIDCLSLDAKKMMNEMQLLSDKGCREMNRLMRKTANPSMPYIGLYLQGFVGLNELPAFDKEGLVNANRLRRMGELAMEILHRQSVAYTLQHDEDVNKLLHVSLPYSSEESRYARSLELEPREADAIPLSDRGSYTLIDDDVDLENEVRESIGGDGTFGFRQWIRKQQVVHRNRSRSSVIALY | same reduced growth rate shown by cells expressing Alt-PLC1 | detection of monoacylglycerol production |
| t1: truncated Phytophthora sojae Alt-PLC1, SEQ ID NO: 17 (protein, Derived from Phytophthora sojae) YQFDSLALAGSRVSVSISTNDVGIQFTTDGNGRGAIVYNIRKQSQAALSAAIVPGLSLIAINHEPVIALEFAVKIDYSHRIEVDKSASYLGSQMPNSSWKMVDKDDHVSRSARPGSVDDLIRELVAGTEVDLVDVVSFVLFLDSFSSLNEVVDRLSAHVRNGVKSHGLIRLFIVVLLFRQSETKEADDLRDRFYSLISLNIDAKDKLVPLVEEYMSLYKEYFSLRGAGNYAVNYQAIPGMMSKVYGMESGFEPVSSGPFSAHLHRFV | reduced growth of E. coli |  |
